Drawing on patent publication US20170291948A1 (published 2017), this text covers Kd for two molecules.

For the assay, the target named is human NRP1 protein (human, UniProt O14786 22-644). Kind of assay: ELISA. For orientation: In an ELISA, binding on a coated surface is turned into a signal by an enzyme label.
Chain of human NRP1 protein (O14786 other isoform, or with tags, fused parts or gaps): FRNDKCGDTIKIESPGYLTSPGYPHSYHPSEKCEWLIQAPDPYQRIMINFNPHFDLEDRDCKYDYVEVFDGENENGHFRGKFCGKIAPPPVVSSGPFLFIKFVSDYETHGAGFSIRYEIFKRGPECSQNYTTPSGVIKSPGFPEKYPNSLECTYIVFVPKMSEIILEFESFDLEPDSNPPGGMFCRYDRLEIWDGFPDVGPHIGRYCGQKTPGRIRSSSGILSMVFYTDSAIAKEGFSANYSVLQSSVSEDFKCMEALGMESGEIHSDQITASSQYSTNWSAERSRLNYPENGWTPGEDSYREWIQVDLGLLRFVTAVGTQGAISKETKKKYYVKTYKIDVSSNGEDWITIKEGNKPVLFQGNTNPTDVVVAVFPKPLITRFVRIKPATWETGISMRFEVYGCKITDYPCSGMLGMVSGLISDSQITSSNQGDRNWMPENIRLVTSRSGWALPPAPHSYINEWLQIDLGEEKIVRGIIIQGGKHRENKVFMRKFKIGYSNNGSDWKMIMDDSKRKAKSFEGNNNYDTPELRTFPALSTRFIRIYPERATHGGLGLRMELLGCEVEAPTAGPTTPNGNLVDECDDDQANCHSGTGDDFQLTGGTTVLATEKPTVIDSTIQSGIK

B1: 1A03 anti-NRP1 IgG (antibody, V domains shown)
VH: EVQLLESGGGLVQPGGSLRLSCAASGFTFSSYYMSWVRQAPGKGLEWVSAISPGSSNKYYADSVQGRFTISRDNSKNTLYLQMNSLRAEDTAVYYCARRKKSFDYWGQGTLVTVSS
VL: QSVLTQPPSASGTPGQRVTISCSGPSSNIGNNDVSWYQQLPGTAPKLLIYSDNNRPSGVPDRFSGSKSGTSASLAISGLRSEDEADYYCGAWVASLSAYVFGGGTKLTVL
For the molecule B1, binding was put at a Kd of 1110 nM. That is a single-digit micromolar value.

B2: IRCR-101 (3H10) anti-NRP1 IgG (antibody, V domains shown)
VH: EVQLLESGGGLVQPGGSLRLSCAASGFTFSSYYMSWVRQAPGKGLEWVSAISPGSSNKYYADSVKGRFTISRDNSKNTLYLQMNSLRAEDTAVYYCARRKYMFDYWGQGTLVTVSS
VL: QSVLTQPPSASGTPGQRVTISCTGSSSNIGNNDVYWYQQLPGTAPKLLIYSDSNRPSGVPDRFSGSKSGTSASLAISGLRSEDEADYYCASWDSSLSGYVFGGGTKLTVL
As to B2, the Kd (commonly the free concentration of one partner at which half of the binding sites on the other are occupied at equilibrium, for simple one-to-one binding) worked out at 426 nM.
